Measured values taken from patent US20100196361A1, “Method of inhibition of vascular development using an antibody” (DYAX CORP., priority 2003, published 2010).

T1: human Tie1-Fc fusion protein (Homo sapiens, UniProt P35590)
T1 construct: selected against the Tie1 extracellular domain fused to human Fc or to a histidine purification tag
T1 sequence (P35590 22-759 limits assumed): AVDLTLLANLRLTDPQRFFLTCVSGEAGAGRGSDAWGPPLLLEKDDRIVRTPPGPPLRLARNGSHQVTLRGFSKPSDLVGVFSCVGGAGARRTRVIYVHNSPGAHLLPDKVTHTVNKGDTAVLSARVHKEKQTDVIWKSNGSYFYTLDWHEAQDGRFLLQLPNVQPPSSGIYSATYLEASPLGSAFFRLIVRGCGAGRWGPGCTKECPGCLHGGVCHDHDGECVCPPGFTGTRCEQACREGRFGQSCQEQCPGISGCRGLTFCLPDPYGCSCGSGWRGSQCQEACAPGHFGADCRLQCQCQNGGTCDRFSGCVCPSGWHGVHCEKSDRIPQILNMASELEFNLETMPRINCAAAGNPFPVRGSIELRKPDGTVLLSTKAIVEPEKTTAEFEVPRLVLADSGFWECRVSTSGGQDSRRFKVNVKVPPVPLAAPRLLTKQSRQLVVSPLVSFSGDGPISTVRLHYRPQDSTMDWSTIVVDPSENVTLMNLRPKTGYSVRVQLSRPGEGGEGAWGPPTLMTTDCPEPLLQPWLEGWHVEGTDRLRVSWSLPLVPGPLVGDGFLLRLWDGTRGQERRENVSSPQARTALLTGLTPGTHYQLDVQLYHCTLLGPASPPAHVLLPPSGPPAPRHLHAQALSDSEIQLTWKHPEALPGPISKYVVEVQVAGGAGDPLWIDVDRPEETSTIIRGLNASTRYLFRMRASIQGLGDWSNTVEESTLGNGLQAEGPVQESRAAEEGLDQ

B1: E3: human anti-Tie1 antibody from phage Fab library, reformatted as IgG; HC variable SEQ ID NO:114, LC variable SEQ ID NO:116 (antibody, V domains shown)
VH: EVQLLESGGGLVQPGGSLRLSCAASGFTFSMYGMVWVRQAPGKGLEWVSVISPSGGNTGYADSVKGRFTISRDNSKNTLYLQVNSLRAEDTAVYYCARAPRGYSYGYYYWGQGTLVTVSSASTKGPSVFPLAPSSKSTSGG
VL: DIQMTQSPLSLSASVGDRVTITCRASQGIGHYLAWYQQKPGKVPKLLIYTASTLQSGVPSRFSGSGSGTDFTLTINSLQPEDVATYYCQQFNSYPHTFGQGTRLDIK
modifications: IgG constant regions; Synthetically generated peptide
B2: parental E3 Fab: soluble Fab fragment of the parental E3 anti-Tie1 antibody (antibody, V domains shown)
VH: EVQLLESGGGLVQPGGSLRLSCAASGFTFSMYGMVWVRQAPGKGLEWVSVISPSGGNTGYADSVKGRFTISRDNSKNTLYLQVNSLRAEDTAVYYCARAPRGYSYGYYYWGQGTLVTVSSASTKGPSVFPLAPSSKSTSGG
VL: DIQMTQSPLSLSASVGDRVTITCRASQGIGHYLAWYQQKPGKVPKLLIYTASTLQSGVPSRFSGSGSGTDFTLTINSLQPEDVATYYCQQFNSYPHTFGQGTRLDIK
B3: DX-2210: E3 antibody in which the light chain has been germlined (antibody, V domains shown)
VH: EVQLLESGGGLVQPGGSLRLSCAASGFTFSMYGMVWVRQAPGKGLEWVSVISPSGGNTGYADSVKGRFTISRDNSKNTLYLQVNSLRAEDTAVYYCARAPRGYSYGYYYWGQGTLVTVSSASTKGPSVFPLAPSSKSTSGG
VL: DIQMTQSPSSLSASVGDRVTITCRASQGIGHYLAWYQQKPGKVPKLLIYTASTLQSGVPSRFSGSGSGTDFTLTISSLQPEDVATYYCQQFNSYPHTFGQGTRLEIK

Columns and labels:
[1] = molecular target: T1, human Tie1-Fc fusion protein; assay: BIAcore 3000 affinity analysis of Fab and IgG; format: binding
Protocol: Affinity analysis of the Fab and IgGs was performed using surface plasmon resonance using a BIAcore 3000 instrument. For this analysis both dimeric (Tie1-Fc fusion protein) and monomeric (Tie1-HIS) versions of the extracellular domain of the Tie1 were used. The sensor chips used in these experiments were CM5 (dextran-coated) which allow immobilization of proteins to the chip via standard amine coupling chemistries. The concentration of flowed antibody was determined using a surface plasmon resonance based method. Using a high-density protein A sensor chip, under mass transport limited conditions, the response signal is dependent only on the concentration of the antibody in the sample under test. This approach allows a precise determination of the antibody concentration, a parameter important for accurate determination of the KD.
470 RUs of Tie1 HIS protein were coated on a CM5 sensor chip and 5, 20, 100, and 500 nM of the Fab flowed over the chip at four different flow rates ([…]), rates in which the system is not mass transport limited. Kinetic data was typically determined using a range of analyte concentrations and three different chip coating densities. The data from the lowest coating density that gave a good signal was typically chosen, this was often in a range from 50-100 RUs. Using such low coating densities allowed the sensor curves to be fit using BIAEVALUATION™ 3.0 software to a 1:1 model, often even when using a bivalent analyte (IgG or Tie1-Fc fusion protein). For bivalent analytes, when fit to a 1:1 model was not possible, the curves were fit using a 2:1 model.
The anti-Tie1 antibodies described here bind to both human and mouse Tie1 molecules. The binding of the anti-Tie1 Fab to mouse Tie1-Fc fusion protein was compared with the binding of the anti-Tie1 Fab to human Tie1-Fc fusion protein. In both of these experiments the Tie1-Fc fusion protein was immobilized on the sensor chip and the anti Tie-1 Fab served as the analyte. Under these experimental conditions the anti-Tie1 Fab has very similar KD (˜3 nM) values for both the human and mouse Tie1-Fc fusion proteins (Table 9). Under conditions that are likely to mimic those used in the animal efficacy experiments, i.e. Tie1-Fc immobilized to the CM5 sensor chip and anti-Tie1 used as the analyte, the measured KD was 0.2 nM.

[2] = test system: bFGF-induced angiogenesis; assay: […] plug assay in vivo; set-up: species or system mouse
Protocol: The germlined variant of the E3 IgG antibody was evaluated in an in vivo assay for angiogenesis induced by bFGF in […]™ plugs. Growth factor reduced […]™ (BD Biosciences, catalog #354230) was supplemented with 80 ng/ml of bFGF (R&D Systems, catalog #234-FSE). The A2-SV or an IgG4 E3 antibody (10 μg/ml) or PBS was injected subcutaneously into the abdominal area of NMRI nu/nu mice (150 μl of Matrigel/plug).
In the first assay, two mice were injected with […]™ supplemented with bFGF and soluble VEGFR-1 (10 μg/ml) as a positive control for an angiogenic inhibitor. At day 7 post-implantation mice were anesthetized and perfused through heart with 4% paraformaldehyde (PFA) in phosphate buffered saline (PBS). […]™ plugs and a piece of liver were removed and embedded in paraffin. Sections were cut and stained with hematoxylin and eosin (H&E).
In a second assay, mice were treated as described above, and then anesthetized eight days post-implantation and injected with fluorescein-conjugated tomato (lycopersicon esculentum) lectin (100 μg in 200 μl of PBS; Vector, catalog #FL-1171) into the tail vein. After five min circulation the animals were perfused through the heart with 10 ml of PBS followed by 10 ml of 4% PFA in PBS. […]™ plugs and pieces of kidney and liver were removed and frozen in OCT (Tissue-Tek). Nuclei were visualized on sections by using […]® mounting medium containing DAPI (Vector) and analyzed under fluorescence microscopy.
To assess further the potential anti-angiogenic activity of the E3 antibody, a third assay examining the effect of DX-2210 (E3 antibody with germlined light chain) on bFGF-induced endothelial cell tube formation in […]™ plugs was performed. […] In order to quantitate the amount of blood vessels in the […]™ plugs, sections were cut and either stained for endothelial cell content using an anti-CD-31 antibody or analyzed under fluorescence microscopy to assess the amount of functional blood vessels (tomato lectin staining) (data not shown). In addition, the amount of blood vessels per unit area was quantitated.

| Molecule | Kon [1] | koff [1] | fluorescein-lectin staining of MATRIGEL plugs ([2]; bFGF, antibody in plug, eight days post-implantation) | inhibition of bFGF-induced angiogenesis (blood vessels per unit area) ([2]; MATRIGEL with HUVECs and bFGF, Balb/c nu/nu mice, day 8) | H&E staining of MATRIGEL plugs ([2]; bFGF 80 ng/ml, antibody 10 μg/ml in plug, NMRI nu/nu mice, day 7) |
| --- | --- | --- | --- | --- | --- |
| B1 | 6190 M⁻¹ s⁻¹ | 3.61e-05 s⁻¹ | no staining could be detected |  |  |
| B2 | 8260 M⁻¹ s⁻¹ | 4.47e-05 s⁻¹ |  |  |  |
| B3 |  |  |  | 70% | neither modification of the matrix nor organization of the cells observed |
